# Source: PMC10940318, “Targeted intracellular delivery of dimeric STINGa by two pHLIP peptides for treatment of solid tumors” (Frontiers in Pharmacology, 2024)
# How the values were obtained:
# [1] = Self-immolation kinetics of the S-S linker and payload release after DTT, by HPLC; assay type: physicochemical; conditions: DTT in 50 mM phosphate buffer, 150 mM NaCl, pH 7.4; HPLC at 0.5-48 h, UV 220/280/325 nm
# Method: Figure S3. Kinetics of self-immolation of 2pHLIP-dMSA. […] Starting 2pHLIP-dMSA is shown on A.
# Figure S4. Self-immolation kinetics of pHLIP-mMSA. HPLC chromatograms recorded at 280 nm and 325 nm for pHLIP-mMSA treated with DTT dissolved in 50 mM phosphate buffer containing 150 mM NaCl pH 7.4 at different time points ([…]) after addition of DTT (A-G) and the retention time for mMSA (H) and pHLIP (I) are shown. Starting pHLIP-mMSA is shown on A.
# [2] = Stability in mouse plasma; conditions: BALB/c mouse plasma, 200 µM, 0-24 h at 37°C, methanol precipitation, HPLC C18, UV 220/280/325 nm
# Method: Plasma proteins were precipitated by methanol (1:5 volume ratio of plasma to methanol) and centrifuged for 10 min at […]. The supernatant was collected and analyzed by HPLC using a Zorbax SB-C18 4.6 × 250 mm, 5 μm column with a gradient from 20% to 80% acetonitrile in water containing 0.05% TFA. Chromatograms were recorded at 220 nm, 280 nm and 325 nm.
# [3] = Stability in human plasma; assay type: in vitro ADME; conditions: single donor human plasma, 200 µM, 0-24 h at 37°C, methanol precipitation, HPLC C18, UV 220/280/325 nm
# Method: Plasma proteins were precipitated by methanol (1:5 volume ratio of plasma to methanol) and centrifuged for 10 min at 13.4 rpm. The supernatant was collected and analyzed by HPLC using a Zorbax SB-C18 4.6 × 250 mm, 5 μm column with a gradient from 20% to 80% acetonitrile in water containing 0.05% TFA. Chromatograms were recorded at 220 nm, 280 nm and 325 nm.
# [4] = pH-dependent insertion into POPC liposome bilayer monitored by CD; assay type: physicochemical; conditions: CD ellipticity vs pH, 7 µM agent, 1.4 mM POPC, 25°C, Henderson-Hasselbalch fit
# Method: The interactions of pHLIP-mMSA and 2pHLIP-dMSA with liposomes were investigated by recording the construct’s fluorescence and circular dichroism (CD) using a PC1 spectrofluorometer (ISS) and a MOS-450 spectrometer (Bio-Logic Science Instruments), respectively, with temperature control set to 25°C. Liposomes, constituting of large unilamellar vesicles were prepared by extrusion. 1-palmitoyl-2-oleoyl-sn-glycero-3-phosphocholine (POPC) lipids (Avanti Polar Lipids) in chloroform were desolvated on a rotary evaporator and dried under vacuum for a minimum of 2 h. The phospholipid film was rehydrated in 2 mM citrate phosphate buffer, pH 7.4, vortexed, and passed through the extruder (using a 50 nm membrane pore size) 21 times.
# Fluorescence spectra were recorded from 310 nm to 390 nm at an excitation wavelength of 295 nm and 1.0 mm sized slits. […] CD spectra were recorded from 190 to 260 nm with a step size of 1 nm. […]
# The pH-dependent insertion of pHLIP-mMSA or 2pHLIP-dMSA into the lipid bilayer of POPC liposomes was studied by monitoring changes in the molar ellipticity as a function of pH. After the addition of aliquots of citric acid, the pHs of solutions containing pHLIP-mMSA/2pHLIP-dMSA and POPC liposomes were measured using an Orion PerHecT ROSS Combination pH Micro Electrode and an Orion Dual Star pH and ISE Benchtop Meter. […]
sequence,measurement,setting,value
ADQDNPWRAYLDLLFPTDTLLLDLLWCG [2pHLIP-dMSA],time to completion of linker self-immolation and release of payload in its original form,[1],≤ 48 h
same,stability in mouse plasma (in words),[2],low
same,stability in human plasma (in words),[3],very high
same,cooperativity (n) of insertion into POPC bilayer,[4],1.2
same,pK (mid-point) of insertion into POPC bilayer,[4],6.0
